These results are taken from the Immune Epitope Database (IEDB).

In one test the target is HLA-B*08:01. As to the kind of experiment: IEDB peptide-MHC binding, purified MHC/competitive/fluorescence; filed as Kd, often an IC50 or EC50 that approximates it; ≥ and ≤ were set here for values at or beyond the usual limits of such assays.
Another test has as its target HLA-A*01:01. In words: IEDB peptide-MHC binding, purified MHC/direct/fluorescence; filed as Kd, often an IC50 or EC50 that approximates it; ≥ and ≤ were set here for values at or beyond the usual limits of such assays.
The target in another test is HLA-A*03:01. The test is described as above.
The next test concerns the target HLA-A*11:01. The test is described as above.
The target in another test is HLA-A*31:01. The description is as above. The following applies: source organism: Escherichia coli O157:H7.
The next test deals with HLA-B*27:05. The test is described as above. The following applies: source organism: Escherichia coli O157:H7.
Another test addresses HLA-B*40:01. The test is described as above. As to conditions: source organism: Escherichia coli O157:H7.
For test [1], the target named is HLA-B*46:01. The description is as above. The following applies: source organism: Escherichia coli O157:H7.
In another test the target is HLA-B*48:01. Described as above. The following applies: source organism: Escherichia coli O157:H7.
For test [2], the target named is HLA-B*57:01. The test is described as above. As to conditions: source organism: Escherichia coli O157:H7.
A further test addresses HLA-B*58:01. Described as above. The following applies: source organism: Escherichia coli O157:H7.
For another test, the target named is HLA-A*02:01. In words: IEDB peptide-MHC binding, purified MHC/competitive/fluorescence; filed as Kd, often an IC50 or EC50 that approximates it; ≥ and ≤ were set here for values at or beyond the usual limits of such assays.
The target in another test is HLA-A*69:01. The test is described as above.
For test [3], the target named is HLA-B*15:01. The description is as above.
The target of the next test is HLA-A*02:03. As to the kind of experiment: IEDB peptide-MHC binding, purified MHC/direct/fluorescence; filed as Kd, often an IC50 or EC50 that approximates it; ≥ and ≤ were set here for values at or beyond the usual limits of such assays.
A further test concerns the target HLA-A*02:11. The description is as above.
Another test has as its target HLA-A*02:12. Described as above.
A further test concerns the target HLA-A*02:16. The test is described as above.
The target in the next test is HLA-A*02:19. The description is as above.
The next test addresses HLA-A*23:01. Described as above.
Another test addresses HLA-A*24:03. The description is as above.
A further test has as its target HLA-A*29:02. The test is described as above.
In the next test the target is HLA-A*68:02. The description is as above.
A further test addresses HLA-A*26:01. As to the kind of experiment: IEDB peptide-MHC binding, purified MHC/competitive/fluorescence; filed as Kd, often an IC50 or EC50 that approximates it; ≥ and ≤ were set here for values at or beyond the usual limits of such assays.
Another test has as its target HLA-B*15:17. Described as above.
The next test addresses HLA-B*15:42. The description is as above. The following applies: source organism: Vibrio parahaemolyticus RIMD 2210633.
Another test has as its target HLA-B*18:01. The test is described as above.
Test [4] addresses HLA-B*39:01. The description is as above.
The target in another test is HLA-B*45:06. Described as above. The following applies: source organism: Vibrio parahaemolyticus RIMD 2210633.
In test [5] the target is HLA-B*46:01. The description is as above.
The target of test [6] is HLA-B*51:01. Described as above.
Test [7] has as its target HLA-B*57:01. The test is described as above.
Another test deals with HLA-B*83:01. Described as above. As to conditions: source organism: Vibrio parahaemolyticus RIMD 2210633.
In test [8] the target is HLA-B*51:01. In words: IEDB peptide-MHC binding, purified MHC/direct/fluorescence; filed as Kd, often an IC50 or EC50 that approximates it; ≥ and ≤ were set here for values at or beyond the usual limits of such assays. As to conditions: source organism: Homo sapiens.
Test [9] has as its target HLA-B*39:01. Described as above. The following applies: source organism: Camelpox virus M-96.
A further test deals with HLA-A*24:02. In words: IEDB peptide-MHC binding, purified MHC/competitive/fluorescence; ≥ and ≤ were set here for values at or beyond the usual limits of such assays. The following applies: source organism: Sudan ebolavirus.
Test [10] concerns the target HLA-B*15:01. Described as above. As to conditions: source organism: Sudan ebolavirus.
In test [11] the target is HLA-B*15:01. In words: IEDB peptide-MHC binding, purified MHC/direct/fluorescence; filed as Kd, often an IC50 or EC50 that approximates it; ≥ and ≤ were set here for values at or beyond the usual limits of such assays. The following applies: source organism: Ebola virus - Eckron (Zaire, 1976).
The target in a further test is HLA-B*27:03. In words: IEDB peptide-MHC binding, purified MHC/competitive/fluorescence; filed as Kd, often an IC50 or EC50 that approximates it; ≥ and ≤ were set here for values at or beyond the usual limits of such assays. As to conditions: source organism: Zaire ebolavirus.
The mark [12] stands for this setting: source organism: Escherichia coli O157:H7.
[13] abbreviates: source organism: Escherichia coli O157:H7 str. EDL933.
[14] abbreviates: source organism: Vibrio parahaemolyticus RIMD 2210633.
Where [15] appears, read: source organism: Zaire ebolavirus.
Where [16] appears, read: source organism: Ravn virus - Ravn, Kenya, 1987.

What is called Kd is the free concentration of one partner at which half of the binding sites on the other are occupied at equilibrium, for simple one-to-one binding. MQQGRFPPL showed a Kd in the test with HLA-B*08:01 (source organism: Yersinia pestis CO92) of 0.34 µM.
With FIVEHINAM, the Kd with HLA-A*01:01 (setting [12]), with HLA-A*03:01 (setting [12]), with HLA-A*11:01 (setting [12]), with HLA-A*31:01, with HLA-B*27:05 and in the test with HLA-B*40:01 was ≥ 20 µM each time. Besides, the Kd in the test with HLA-B*46:01 [1] was 0.232 µM; in the test with HLA-B*48:01, ≥ 20 µM; in the test with HLA-B*57:01 [2], ≥ 20 µM; in the test with HLA-B*58:01, ≥ 20 µM; with HLA-A*02:01 (setting [13]), 0.0104 µM; with HLA-A*69:01 (setting [13]), 0.68 µM. Further, the Kd with HLA-B*08:01 (setting [13]) worked out at 0.91 µM; with HLA-B*15:01 [3] (setting [13]) it was 0.0925 µM.
For the sequence SMNYPNSYK, the Kd was ≥ 20 µM with HLA-A*02:03 (setting [14]); ≥ 20 µM with HLA-A*02:11 (setting [14]); ≥ 20 µM in the test with HLA-A*02:12 (setting [14]); ≥ 20 µM with HLA-A*02:16 (setting [14]); ≥ 20 µM in the test with HLA-A*02:19 (setting [14]); ≤ 0.001 µM in the test with HLA-A*11:01 (setting [14]). In addition, the Kd with HLA-A*23:01 (setting [14]), with HLA-A*24:03 (setting [14]), with HLA-A*29:02 (setting [14]), with HLA-A*68:02 (setting [14]), in the test with HLA-A*02:01 (setting [14]) and with HLA-A*26:01 (setting [14]) was ≥ 20 µM in each case. The Kd with HLA-A*69:01 (setting [14]) was ≥ 20 µM; in the test with HLA-B*15:17 (setting [14]) it was ≥ 20 µM; in the test with HLA-B*15:42 it was ≥ 5 µM; with HLA-B*18:01 (setting [14]), ≥ 20 µM; with HLA-B*39:01 [4] (setting [14]), ≥ 20 µM; with HLA-B*45:06 it was ≥ 5 µM. Further, the Kd with HLA-B*46:01 [5] (setting [14]) was ≥ 20 µM; in the test with HLA-B*51:01 [6] (setting [14]), ≥ 20 µM; in the test with HLA-B*57:01 [7] (setting [14]) it was ≥ 20 µM; in the test with HLA-B*83:01 it was ≥ 5 µM.
For the sequence YPGFGEHLI, the Kd with HLA-B*51:01 [8] is 1.89 µM.
In the test with HLA-B*39:01 [9], HHDPILNGL came in with a Kd of 0.0426 µM.
As a reminder, the IC50 is the concentration needed to halve the response being measured. With ILNRKAIDF, the IC50 in the test with HLA-A*24:02 is 3.28 µM; with HLA-B*15:01 [10] it was 12.5 µM. The Kd with HLA-A*02:03 (setting [15]), with HLA-A*02:11 (setting [15]), with HLA-A*02:12 (setting [15]), with HLA-A*02:16 (setting [15]), in the test with HLA-A*02:19 (setting [15]) and in the test with HLA-A*03:01 (setting [15]) was ≥ 20 µM each time. Moreover, the Kd with HLA-A*23:01 (setting [15]) was ≥ 20 µM; with HLA-A*24:03 (setting [15]) it was ≥ 20 µM; with HLA-A*29:02 (setting [15]), ≥ 20 µM; in the test with HLA-A*68:02 (setting [15]) it was ≥ 20 µM; in the test with HLA-B*15:01 [11] it was 0.372 µM; in the test with HLA-A*02:01 (setting [15]), ≥ 20 µM. Further, the Kd in the test with HLA-A*26:01 (setting [15]), in the test with HLA-A*69:01 (setting [15]), in the test with HLA-B*15:17 (setting [15]), with HLA-B*18:01 (setting [15]), with HLA-B*27:03 and with HLA-B*39:01 [4] (setting [15]) was ≥ 20 µM throughout. The Kd in the test with HLA-B*46:01 [5] (setting [15]), with HLA-B*51:01 [6] (setting [15]) and with HLA-B*57:01 [7] (setting [15]) was ≥ 20 µM in each case.
As to DLEKYNLAF, the Kd with HLA-A*01:01 (setting [15]), in the test with HLA-A*02:03 (setting [16]), with HLA-A*02:11 (setting [16]), with HLA-A*02:12 (setting [16]), with HLA-A*02:16 (setting [16]) and with HLA-A*02:19 (setting [16]) was ≥ 20 µM throughout. Further, the Kd in the test with HLA-A*03:01 (setting [16]), with HLA-A*23:01 (setting [16]), in the test with HLA-A*24:03 (setting [16]), with HLA-A*29:02 (setting [16]), with HLA-A*68:02 (setting [16]) and with HLA-A*02:01 (setting [15]) was ≥ 20 µM in each case. The Kd with HLA-A*26:01 (setting [15]), with HLA-A*69:01 (setting [15]), with HLA-B*15:01 [3] (setting [15]), with HLA-B*15:17 (setting [15]), with HLA-B*18:01 (setting [15]) and in the test with HLA-B*27:03 was ≥ 20 µM throughout. The Kd in the test with HLA-B*39:01 [4] (setting [15]), with HLA-B*46:01 [5] (setting [15]), in the test with HLA-B*51:01 [6] (setting [15]) and in the test with HLA-B*57:01 [7] (setting [15]) was ≥ 20 µM throughout.
